Data published in patent US20090291081A1 (AbbVie / Abbott, published 2009).
Residue numbers refer to the chain shown, from its start. Several values for one entry are separate records, joined by “and”; a condition that tells them apart may be missing. Identical values can stand only once.

T1: human IL-1α (human, UniProt P01583 113-271)
T1 sequence (looked up): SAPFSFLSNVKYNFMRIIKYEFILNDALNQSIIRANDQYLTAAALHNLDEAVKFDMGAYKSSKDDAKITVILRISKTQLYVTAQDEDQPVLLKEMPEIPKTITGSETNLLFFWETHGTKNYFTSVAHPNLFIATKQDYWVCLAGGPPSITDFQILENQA

B1: ABT2-65/ABT1-141 hu IgG1/K wt (bispecific antibody, V domains shown)
VH: EVQLLESGGGLVQPGGSLRLSCAASGFTFEDYQMGWVRQAPGKGLEWVSSISAMGNRTYYADSVKGRFTISRDDSKNTLYLQMNSLRAEDTAVYYCAKNLVRTQSKMWMFDYWGQGTLVTVSS
VL: DIQMTQSPSSLSASVGDRVTITCRASQWIQKQLAWYQQKPGKAPKLLIYSSSYLQSGVPRFSGSGSGTDFTLTISSLQPEDFATYYCQQHLRVPFTFGQGTKVEIKR
B2: ABT2-65-8/ABT1-141 hu IgG1/K wt (bispecific antibody, V domains shown)
VH: B1 VH with K98Q, T103M, Q104D, K106R, M107R
VL: B1 VL
B3: ABT2-65/ABT1-122 hu IgG1/K wt (bispecific antibody, V domains shown)
VH: B1 VH
VL: DIQMTQSPSSLSASVGDRVTITCRASQPIWTELNWYQQKPGKAPKLLIYGSSSLQSGVPRFSGSGSGTDFTLTISSLQPEDFATYYCQQFAYFPATFGQGTKVEIKR
B4: ABT2-65-8/ABT1-212 hu IgG1/K wt (bispecific antibody, V domains shown)
VH: B1 VH with K98Q, T103M, Q104D, K106R, M107R
VL: DIQMTQSPSSLSASVGDRVTITCRASQRINGNLRWYQQKPGKAPKLLIYSVSQLQSGVPSRFSGSGSGTDFTLTISSLQPEDFATYYCQQGYDWPPTFGQGTKVETKR
B5: ABT2-65-166/ABT1-95-15 hu IgG1/K wt (bispecific antibody, V domains shown)
VH: B1 VH with N56G, D74N, K98Q, T103L, Q104G, S105R, K106S, M107R
VL: DIQMTQSPSSLSASVGDRVTITCRASQPIVRNLRWYQQKPGKAPKLLIYSSSYLEPGVPSRFSGSGSGTDFTLTISSLQPEDFATYHCQQGYRWPVTFGQGTKVEIKR
B6: ABT2-65-201/ABT1-95-15 hu IgG1/K mut (234; 235) (bispecific antibody, V domains shown)
VH: B1 VH with A23V, N56R, D74N, K98Q, T103L, Q104G, S105R, K106S, M107R
VL: B5 VL
B7: ABT2-65-8/ABT1-122 hu IgG1/K wt (bispecific antibody, V domains shown)
VH: B1 VH with K98Q, T103M, Q104D, K106R, M107R
VL: B3 VL
B8: ABT2-65-166/ABT1-95-184 hu IgG1mut 234, 235/K (bispecific antibody, V domains shown)
VH: B1 VH with N56G, D74N, K98Q, T103L, Q104G, S105R, K106S, M107R
VL: B5 VL with Q27R, P28T, I29P, S51R, Q89L, V96P
B9: ABT2-65-17/ABT1-141 hu IgG1/K wt (bispecific antibody, V domains shown)
VH: B1 VH with A23V, K98Q, T103L, Q104G, S105R, K106S, M107R
VL: B1 VL
B10: ABT2-65-B2 (other)
VH: B1 VH with A23V, N56R, K98Q, T103L, Q104G, S105R, K106S, M107R
notes: VH dAb
B11: ABT2-65-201 (other)
VH: B1 VH with A23V, N56R, D74N, K98Q, T103L, Q104G, S105R, K106S, M107R
notes: VH dAb
B12: ABT2-65-203 (other)
VH: B1 VH with A23V, N56F, D74N, K98Q, T103L, Q104G, S105R, K106S, M107R
notes: VH dAb
B13: ABT2-65-166SK (other)
VH: B1 VH with E30S, N56G, D74N, T103L, Q104G, S105R, K106S, M107R
notes: VH dAb
B14: ABT2-65-B3 (other)
VH: B1 VH with A23V, T58A, K98Q, T103L, Q104G, S105R, K106S, M107R
notes: VH dAb
B15: ABT2-65-166S (other)
VH: B1 VH with E30S, N56G, D74N, K98Q, T103L, Q104G, S105R, K106S, M107R
notes: VH dAb
B16: ABT2-108-620x/ABT1-122-750x huIgG1/K wt (bispecific antibody, V domains shown)
VH: EVQLLESGGGLVQPGGSLRLSCAASGFTFAEESWMWVRQAPGKGLEWVSRIGQDGKNTYYREDVKGRFTISRDNSKNTLYLQMNSLRAEDTAVYYCAKYTGRIMGHHLFDYWGQGTLVTVSS
VL: DIQMTQSPSSLSASVGDRVAITCSASQHIWTEISWYQQKPGKAPKLLIYGSASRQKGVPSRFSGSGSGTDFTLTISSLQPEDFATYYCKQFAYFPNTFGQGTKVEIKR
B17: ABT2-108-521/ABT1-141-25 hu IgG1/K wt (bispecific antibody, V domains shown)
VH: B16 VH with E32Y, S33T, W34M, R61A, E62D, D63S, M104L
VL: DIQMTQSPSSLSASVGDRVTITCRASQWIQKQLAWYQQKPGKAPKLLIYSSSYLQSGVPSRFSGSGSGTDFTLTISSLQPEDFATYYCQQHLRVPMTFGQGTKVEIKR
B18: ABT2-108-504/ABT1-122 hu IgG1/K wt (bispecific antibody, V domains shown)
VH: B16 VH with E31D, S33G, W34M, R61A, E62D, D63S, I103V, M104G, G105V
VL: B3 VL
B19: ABT2-108-538x/ABT1-221 huIgG1/K wt (bispecific antibody, V domains shown)
VH: B16 VH with E31D, S33G, W34M, G52T, Q53Y, D54S, R61A, E62D, D63S, M104L
VL: DIQMTQSPSSLSASVGDRVTITCRASQDIWPYLMWYQQKPGKAPKLLIYYSSMLQSGVPSRFSGSGSGTDFTLTISSLQPEDFATYYCQQFRRWPYTFGQGTKVEIKR
B20: ABT2-108-521 (other)
VH: B16 VH with E32Y, S33T, W34M, R61A, E62D, D63S, M104L
notes: VH dAb
B21: ABT2-108-518/ABT1-122 hu IgG1/K wt (bispecific antibody, V domains shown)
VH: B16 VH with E32Y, S33T, W34M, E62M, I103V, M104G, G105V
VL: B3 VL
B22: ABT2-108-537x/ABT1-122 hu IgG1/K wt (bispecific antibody, V domains shown)
VH: B16 VH with E31D, S33G, W34M, E62M, M104L
VL: B3 VL
B23: ABT2-108-538x/ABT1-221 huIgG1/K wt (second row of that name; light chain column ABT1-222) (bispecific antibody, V domains shown)
VH: B16 VH with E31D, S33G, W34M, G52T, Q53Y, D54S, R61A, E62D, D63S, M104L
VL: B5 VL with V30T, S50H, Y53V, E55Q, P56S, H87Y
B24: ABT2-108-617/ABT1-122 hu IgG1/K wt (bispecific antibody, V domains shown)
VH: B16 VH with E32Y, S33T, W34M, R61A, E62D, D63S, M104F, G105T
VL: B3 VL
B25: ABT2-108-521/ABT1-95-A3 hu IgG1 wt (bispecific antibody, V domains shown)
VH: B16 VH with E32Y, S33T, W34M, R61A, E62D, D63S, M104L
VL: B5 VL with Q27K, I29G, L33M, S51V, Q89L, V96P
B26: ABT2-108-612/ABT1-122 hu IgG1/K wt (bispecific antibody, V domains shown)
VH: B16 VH with E32Y, S33T, W34M, R61A, E62D, D63S
VL: B3 VL
B27: ABT2-108-511 (other)
VH: B16 VH with E32Y, S33T, W34M, Y59V, Y60I, E62D, D63S, I103V, M104G, G105V
notes: VH dAb
B28: ABT2-108-602 (other)
VH: B16 VH with S33K, W34Y, R61A, E62D, D63S, I103V, M104G, G105V
notes: VH dAb
B29: ABT2-108-524 (other)
VH: B16 VH with E32Y, S33T, W34M, R61A, E62D, D63S, I103V, M104F, G105N
notes: VH dAb
B30: ABT2-108-504 (other)
VH: B16 VH with E31D, S33G, W34M, R61A, E62D, D63S, I103V, M104G, G105V
notes: VH dAb
B31: ABT2-108-534x (other)
VH: EVQLLESGGGLVQPGGSLRLSCAASGFTFADEGMMWVRQAPGKGLEWVSRITYSGKNTYYADSVKGRFTISRDNSKNTLYLQMNSLRAEDTAVYYCAKYTGRIFSHHLFDYWGQGTLVTVSS
notes: VH dAb
B32: ABT2-108-601 (other)
VH: B16 VH with R61A, E62D, D63S, I103V, M104G, G105V
notes: VH dAb
B33: ABT2-108-527 (other)
VH: B31 VH with D31E, E32Y, G33T, T52G, Y53Q, S54D, I103V, S105K
notes: VH dAb
B34: ABT2-108-509 (other)
VH: B31 VH with D31E, E32Y, G33T, I103V, F104G, S105V
notes: VH dAb
B35: ABT2-108-518 (other)
VH: B16 VH with E32Y, S33T, W34M, E62M, I103V, M104G, G105V
notes: VH dAb
B36: ABT2-108-534x/ABT1-122 hu IgG1/K wt (bispecific antibody, V domains shown)
VH: B31 VH
VL: B3 VL
B37: ABT2-108-603/ABT1-122 hu IgG1/K wt (bispecific antibody, V domains shown)
VH: B31 VH with D31E, E32Y, G33T, Y53D, S54A, I103V, F104G, S105V
VL: B3 VL

Experiments:
[1] = target: T1, human IL-1α; assay: cell-based or functional assay
[2] = target: human IL-1β (human, UniProt P01584 117-269); assay: cell-based or functional assay
[3] = target: T2, human IL-1β (human, UniProt P01584 117-269); assay: Table 60 heading; dAbs from selection on antigen
T2 construct: also called IL-1beta; hIL-1β

Row | Binder | IL-1α IC50 [1] | IL-1β IC50 [2] | binding result [3]
1 | B1 | 7000 nM | 100 nM | –
2 | B2 | 450 nM | 0.09 nM | –
3 | B3 | 2000 nM | 2000 nM | –
4 | B4 | 5000 nM | 3.5 nM | –
5 | B5 | 1.89 nM | 0.13 nM | –
6 | B6 | 0.652 nM | 0.03 nM | –
7 | B7 | 1000 nM | 2.7 nM | –
8 | B8 | 0.068 nM | 0.15 nM | –
9 | B9 | 70 nM | 0.4 nM | –
10 | B10 | – | – | binds
11 | B11 | – | – | binds
12 | B12 | – | – | binds
13 | B13 | – | – | binds
14 | B14 | – | – | binds
15 | B15 | – | – | binds
16 | B16 | 17.5 nM | 0.005 nM | –
17 | B17 | 20 nM | 0.1 nM | –
18 | B18 | 1500 nM | 15 nM | –
19 | B19 | 200 nM | 0.01 nM | –

Row | Binder | IL-1α IC50 [1] | IL-1β IC50 [2] | binding result [3]
20 | B20 | – | – | binds
21 | B21 | 400 nM | 0.5 nM | –
22 | B22 | 1000 nM | 0.007 nM and 0.02 nM | –
23 | B23 | 200 nM | 0.01 nM | –
24 | B24 | 150 nM | 0.05 nM | –
25 | B25 | 0.027 nM | 0.098 nM | –
26 | B26 | 100 nM | 1 nM and 0.45 nM | –
27 | B27 | – | – | binds
28 | B28 | – | – | binds
29 | B29 | – | – | binds
30 | B30 | – | – | binds
31 | B31 | – | – | binds
32 | B32 | – | – | binds
33 | B33 | – | – | binds
34 | B34 | – | – | binds
35 | B35 | – | – | binds
36 | B36 | 1000 nM | 0.025 nM and 0.035 nM | –
37 | B37 | 1500 nM | 10 nM | –
